We go through three substances from FireProtDB (doi:10.1038/nsb1296-1019).

The conditions of the series: Equus caballus, pH 2, Sodium phosphate 10 mM, KCl 1 M; for denaturant midpoint (higher = more stable) / unfolding free energy: 10 °C, Acid.
Setting [1] is: Thermal, CD, transition: 3, structure 1AKK.

Chain of Cytochrome c wild type, P00004 (P00004 whole entry): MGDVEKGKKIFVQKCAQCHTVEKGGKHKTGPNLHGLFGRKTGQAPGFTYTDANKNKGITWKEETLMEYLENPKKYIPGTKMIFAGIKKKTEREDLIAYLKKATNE
Chain of Cytochrome c L95V, P00004 (P00004 whole entry L95V): as the sequence (P00004 whole entry) above, with L95V counted along it
Chain of Cytochrome c L95A, P00004 (P00004 whole entry L95A): as the sequence (P00004 whole entry) above, with L95A counted along it

Take Cytochrome c L95A, P00004: for the setting “CD, structure 1AKK”, the “denaturant midpoint (higher = more stable)” value (shortened to “denaturant midpoint”) worked out at 0.83 M and the unfolding free energy was 0.418 kJ/mol. Under “Fluorescence, structure 1AKK”, the “denaturant midpoint” value was 0.3 M and the unfolding free energy was 3.1 kJ/mol.

Cytochrome c L95V, P00004: where the note is “CD, structure 1AKK”, the “denaturant midpoint” value stood at 0.1 M and the unfolding free energy was found to be 10.8 kJ/mol. For the setting “Fluorescence, structure 1AKK”, the “denaturant midpoint” value stood at 0.08 M and the unfolding free energy turned out to be 11.3 kJ/mol. Under “83 °C, Thermal, CD, transition: 3, structure 1AKK”, the “ddG of mutation (higher = less stable)” value stood at 5.02 kJ/mol. Under setting [1], the Tm stood at 79 °C; the “change of melting temperature, mutant - wild type (higher = more stable)” value was -4 °C; the “unfolding enthalpy (van 't Hoff)” value stood at 435 kJ/mol.

As to Cytochrome c wild type, P00004, where the note is “CD”, the “denaturant midpoint” value is 0.03 M and the unfolding free energy stood at 17.3 kJ/mol. In addition, where the note is “Fluorescence”, the “denaturant midpoint” value came to 0.03 M and the unfolding free energy amounted to 14.8 kJ/mol. In addition, under “Thermal, CD, transition: 3”, the Tm was 83 °C and the “unfolding enthalpy (van 't Hoff)” value came out at 448 kJ/mol.

Broadly, the Tm is the temperature at the midpoint of the melting transition.
